# Reference: US20170174769A1 (Regeneron, published 2017)
# Where “and” joins values, the source holds several entries; their conditions need not be identical. Identical values can stand only once. Like-named read-outs stand apart in the source and are kept apart here.
# T1: recombinant cynomolgus monkey FGF21 with an N-terminal hexahistidine tag (cynomolgus monkey)
# T1 construct: also called His6-MfFGF21; mfFGF21
# T1 chain: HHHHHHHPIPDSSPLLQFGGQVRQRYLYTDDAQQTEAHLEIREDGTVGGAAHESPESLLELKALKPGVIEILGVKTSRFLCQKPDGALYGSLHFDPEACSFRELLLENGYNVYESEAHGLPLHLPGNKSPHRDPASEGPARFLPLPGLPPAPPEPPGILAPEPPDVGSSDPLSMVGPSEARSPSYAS
# T2: biotinylated human FGF21 expressed with a N-terminal hexahistidine tag (human, UniProt Q9NSA1 29-209, biotinylated (site not stated))
# T2 construct: also called biotin-6His-hFGF21; biotin 6His-hFGF21
# T2 sequence: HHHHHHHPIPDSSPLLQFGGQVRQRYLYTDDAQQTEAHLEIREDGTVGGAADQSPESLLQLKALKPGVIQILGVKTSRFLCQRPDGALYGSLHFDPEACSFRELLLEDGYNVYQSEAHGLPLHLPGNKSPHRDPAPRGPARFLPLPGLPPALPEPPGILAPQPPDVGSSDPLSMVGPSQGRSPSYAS
# T3: mouse FGF21 (mouse, UniProt Q9JJN1 29-210)
# T3 construct: also called mFGF21 (Prospec, # CYT-339)
# T3 sequence (looked up): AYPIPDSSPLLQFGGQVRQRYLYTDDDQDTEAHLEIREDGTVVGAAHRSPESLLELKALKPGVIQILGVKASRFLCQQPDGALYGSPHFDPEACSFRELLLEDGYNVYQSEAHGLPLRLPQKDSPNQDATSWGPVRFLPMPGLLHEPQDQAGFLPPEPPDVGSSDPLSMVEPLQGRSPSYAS
# T4: rat FGF21 (rat, UniProt A0A7U3JW68 29-208)
# T4 sequence: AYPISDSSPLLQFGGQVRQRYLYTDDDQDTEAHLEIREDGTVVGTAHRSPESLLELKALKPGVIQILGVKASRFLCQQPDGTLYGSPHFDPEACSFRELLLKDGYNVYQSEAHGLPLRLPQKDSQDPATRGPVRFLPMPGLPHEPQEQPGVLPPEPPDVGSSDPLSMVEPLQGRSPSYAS
# B1: H2M6504N (antibody, V domains shown)
# VH: EVHLVESGGGLVQPGRSLRLSCVASGFTFDDYAMHWVRQVPGKGLEWVSVITWNSGSIGYADSVKGRFTISRDNAKNSLFLQVSSLRAEDTALYYCAKGISPTGTTPDYWGQGTLVTVSS
# VL: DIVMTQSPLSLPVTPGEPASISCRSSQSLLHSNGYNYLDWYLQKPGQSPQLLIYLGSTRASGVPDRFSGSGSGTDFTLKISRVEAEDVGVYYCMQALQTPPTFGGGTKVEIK
# notes: mouse IgG2 Fc (H2M prefix); also called H2aM6504N
# B2: H4H6504N (antibody, V domains shown)
# VH: B1 VH
# VL: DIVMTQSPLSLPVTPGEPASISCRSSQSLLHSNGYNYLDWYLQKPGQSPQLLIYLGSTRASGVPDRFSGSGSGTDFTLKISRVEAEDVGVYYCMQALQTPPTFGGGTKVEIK
# notes: 6504N variable domains on human IgG4 Fc (H4H prefix)
# B3: H4H6879P (antibody, V domains shown)
# VH: QVQLQESGPGLVKPSETLSLTCTVSGGSISGYYWSWIRQPPGKGLEWIGYFYNSGSTNYNPSLKSRVTMSVDTSKNQFSLRLTSVTAADTAVYYCTRERELLYFDYWGQGTLVTVSS
# VL: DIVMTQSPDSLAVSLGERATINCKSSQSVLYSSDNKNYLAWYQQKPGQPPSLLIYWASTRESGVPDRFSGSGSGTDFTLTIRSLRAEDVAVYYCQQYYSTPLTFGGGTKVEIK
# notes: human IgG4 Fc (H4H prefix)
# B4: H4H6915P (antibody, V domains shown)
# VH: QVQLVESGGGVVQPGRSLRLSCAASGFTFSSYVMHWVRQAPGKGLEWVSVISYDGGNKYYADSVKGRFTISRDNSKNTLDLQMNSLRAEDTAVYYCAKEDDYIWGGFFDLWGRGTLVTVSS
# VL: DIQMTQSPSSLSASVGDRVTITCRASQGIRNDLGWYQKKPGKAPKRLISAAYSLQSGVTSRFSGSGSGTEFTLTISSLQPEDFATYYCLQHNSYPWTFGQGTKVEIK
# notes: human IgG4 Fc (H4H prefix)
# B5: H2M6509N (antibody, V domains shown)
# VH: EVQLVESGGGLVKPGGSLRLSCAASGFTFSNAWMSWVRQAPGKGLDWVGRIKNKLDGGTTDYAAPVKGRFTISRDDSKNTLYLQMNSLKTEDTAVYYCTTDHGWNYYYGMDVWGQGTTVTVSS
# VL: DIQMTQSPSSLSASVGDRVTITCRASQDISNYLAWFQHKPGKAPKSLIYAASSLQGGVPSKFSGSGSGTDFTLTISSLQPEDFATYYCQQYNTYPPTFGAGTKVEIK
# notes: mouse IgG2 Fc (H2M prefix); also called H2aM6509N
# B6: H2M6499N (antibody, V domains shown)
# VH: QVHLVQSGAEVKKPGASVKVSCKASGYSFTDYYVHWVRQAPGQGLEWMGWFNPKSGDTNSVQKFQGRVSMTGDTSITTAYLDLRRLTSDDTAVYYCGRSGYFDFWGQGTLVTVSS
# VL: DVVMTQSPLSLSVTLGQPASISCRSSQSLVFSDGNTFLNWFQQRPGQSPRRLIYNLSNRDSGVPDRFSGSGSGTDFTLKISGVEAEDVGVYYCMQGTHWPLTFGGGTKVEIK
# notes: human variable domains, mouse IgG2 Fc (H2M prefix); also called H2aM6499N
# B7: recombinant human FGF21 expressed with an N-terminal hexahistidine tag (ligand)
# chain: T2 sequence
# How the values were obtained:
# [1] = molecular target: B7; experiment: cell-based or functional assay
# [2] = molecular target: T1, recombinant cynomolgus monkey FGF21 …; experiment: SPR Biacore 4000, mAb captured, 25 C
# Description: (§1) Antibodies were captured on a goat anti-mouse IgG polyclonal antibody (GE Healthcare, BR-1008-38) surface created through direct amine coupling of the anti-IgG antibodies to a Biacore CM5 sensor chip. Kinetic experiments were carried out using HBS-EP (10 mM HEPES, 150mM NaCl, 3 mM EDTA, 0.05% Surfactant P20, pH 7.4) as both the running buffer and the sample buffer. […] Antibody-antigen association was monitored for 180 seconds while dissociation in buffer was monitored for 300 seconds. Kinetic association (kₐ) and dissociation (kd) rate constants were determined by processing and fitting the data using Scrubber software version 2.0c. Binding dissociation equilibrium constants (KD) and dissociative half-lives (t_{1/2}) were calculated from the kinetic rate constants as: KD =kd/kₐ and t112 =In(2)/kd.
# [3] = molecular target: B7; experiment: SPR Biacore 4000, mAb captured, 25 C
# Description: as §1
# [4] = molecular target: T2, biotinylated human FGF21 expressed with …; experiment: competition ELISA: mAb blocks 300 pM biotin-6His-hFGF21 binding to coated hKLB-10his
# Description: The ability of anti-FGF21 antibodies to block human FGF21 binding to a cognate binding partner human klotho beta was evaluated with an ELISA-based immunoassay. Briefly, human klotho beta (hKLB-10his; R&D systems, #5889-KB-050) was coated at 2μg/mL on a 96-well plate in PBS buffer overnight at 4° C. […] The equilibrated sample solutions were then transferred to hKLB-10his-coated plates. […] Samples were developed with a TMB solution to produce a colorimetric reaction and then neutralized with 1M sulfuric acid before measuring absorbance at 450 nm on a Victor plate reader. Data analysis was performed using a sigmoidal dose-response model within Prism™ software (GraphPad).
# The absorbance values of the wells containing the highest concentration for each antibody were used to determine the percent maximum blockade.
# [5] = molecular target: T1, recombinant cynomolgus monkey FGF21 …; experiment: SPR Biacore 4000, mAb captured, 37 C
# Description: as §1
# [6] = molecular target: B7; experiment: SPR Biacore 4000, mAb captured, 37 C
# Description: as §1
# mouse FGF21 = molecular target: T3, mouse FGF21; experiment: not described
# rat FGF21 = molecular target: T4, rat FGF21; experiment: not described
# [7] = molecular target: T5, cell-surface human FGFR1c (amino acids 1-731 of NP_075594) with cell-surface human KLB on … (human, UniProt P11362 22-822); experiment: cell-based or functional assay
# T5 sequence (P11362 22-822, chain 1 of 2): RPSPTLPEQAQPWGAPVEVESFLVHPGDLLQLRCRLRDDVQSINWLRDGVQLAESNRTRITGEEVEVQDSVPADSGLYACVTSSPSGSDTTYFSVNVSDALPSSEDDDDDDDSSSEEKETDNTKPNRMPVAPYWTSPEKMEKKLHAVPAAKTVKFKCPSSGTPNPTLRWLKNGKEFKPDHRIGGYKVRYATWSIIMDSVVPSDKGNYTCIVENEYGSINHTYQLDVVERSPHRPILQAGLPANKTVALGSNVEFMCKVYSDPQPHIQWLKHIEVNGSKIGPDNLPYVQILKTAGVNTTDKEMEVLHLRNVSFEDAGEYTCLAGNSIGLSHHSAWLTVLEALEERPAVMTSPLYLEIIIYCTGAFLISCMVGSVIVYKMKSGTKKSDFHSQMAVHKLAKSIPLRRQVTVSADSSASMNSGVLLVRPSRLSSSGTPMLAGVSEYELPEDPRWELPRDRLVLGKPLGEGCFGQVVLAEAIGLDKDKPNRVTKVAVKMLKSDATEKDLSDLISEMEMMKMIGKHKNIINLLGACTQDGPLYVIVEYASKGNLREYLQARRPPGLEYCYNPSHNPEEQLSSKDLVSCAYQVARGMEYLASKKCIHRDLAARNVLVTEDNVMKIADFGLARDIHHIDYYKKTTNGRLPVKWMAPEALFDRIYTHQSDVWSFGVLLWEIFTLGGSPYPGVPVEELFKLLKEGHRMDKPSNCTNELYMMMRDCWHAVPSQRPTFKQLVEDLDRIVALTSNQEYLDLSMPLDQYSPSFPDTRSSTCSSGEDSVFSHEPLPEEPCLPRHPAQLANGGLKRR
# T5 sequence (chain, as listed by the source, chain 2 of 2): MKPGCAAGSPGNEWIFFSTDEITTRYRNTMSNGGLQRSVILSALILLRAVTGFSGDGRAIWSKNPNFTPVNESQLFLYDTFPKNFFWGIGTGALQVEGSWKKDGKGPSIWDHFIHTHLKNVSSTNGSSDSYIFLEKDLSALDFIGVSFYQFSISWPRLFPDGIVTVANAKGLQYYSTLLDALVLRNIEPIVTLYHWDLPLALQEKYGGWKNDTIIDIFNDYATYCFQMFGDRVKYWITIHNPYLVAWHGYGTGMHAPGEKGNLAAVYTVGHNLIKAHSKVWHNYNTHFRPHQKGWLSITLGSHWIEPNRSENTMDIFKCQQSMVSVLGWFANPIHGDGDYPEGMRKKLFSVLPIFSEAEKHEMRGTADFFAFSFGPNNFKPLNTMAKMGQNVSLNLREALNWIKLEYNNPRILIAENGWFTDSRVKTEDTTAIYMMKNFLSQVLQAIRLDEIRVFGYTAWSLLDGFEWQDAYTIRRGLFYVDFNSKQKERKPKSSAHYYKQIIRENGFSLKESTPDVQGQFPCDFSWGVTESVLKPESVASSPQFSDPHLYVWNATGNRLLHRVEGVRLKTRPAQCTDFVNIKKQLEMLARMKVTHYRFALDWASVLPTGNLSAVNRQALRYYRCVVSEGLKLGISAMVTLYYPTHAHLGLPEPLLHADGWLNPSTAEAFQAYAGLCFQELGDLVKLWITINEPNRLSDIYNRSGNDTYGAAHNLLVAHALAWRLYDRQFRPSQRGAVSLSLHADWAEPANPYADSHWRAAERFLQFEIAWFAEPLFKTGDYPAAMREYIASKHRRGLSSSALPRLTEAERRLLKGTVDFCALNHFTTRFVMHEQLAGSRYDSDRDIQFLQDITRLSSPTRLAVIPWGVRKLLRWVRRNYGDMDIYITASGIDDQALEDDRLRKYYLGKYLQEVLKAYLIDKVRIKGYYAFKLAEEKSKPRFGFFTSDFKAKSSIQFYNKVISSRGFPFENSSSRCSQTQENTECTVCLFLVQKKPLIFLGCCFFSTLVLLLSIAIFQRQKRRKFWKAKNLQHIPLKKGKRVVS
# [8] = molecular target: T6, human KLB and human FGFR1c co-expressed on HEK293/hKLB/hFGFR1c/SRE-luc cells (human, UniProt Q86Z14 1-1044; P11362 22-822); experiment: cell-based or functional assay
# T6 sequence (Q86Z14 whole entry, chain 1 of 2): as the sequence (chain, as listed by the source, chain 2 of 2) above
# T6 sequence (P11362 other isoform, or with tags, fused parts or gaps limits assumed, chain 2 of 2): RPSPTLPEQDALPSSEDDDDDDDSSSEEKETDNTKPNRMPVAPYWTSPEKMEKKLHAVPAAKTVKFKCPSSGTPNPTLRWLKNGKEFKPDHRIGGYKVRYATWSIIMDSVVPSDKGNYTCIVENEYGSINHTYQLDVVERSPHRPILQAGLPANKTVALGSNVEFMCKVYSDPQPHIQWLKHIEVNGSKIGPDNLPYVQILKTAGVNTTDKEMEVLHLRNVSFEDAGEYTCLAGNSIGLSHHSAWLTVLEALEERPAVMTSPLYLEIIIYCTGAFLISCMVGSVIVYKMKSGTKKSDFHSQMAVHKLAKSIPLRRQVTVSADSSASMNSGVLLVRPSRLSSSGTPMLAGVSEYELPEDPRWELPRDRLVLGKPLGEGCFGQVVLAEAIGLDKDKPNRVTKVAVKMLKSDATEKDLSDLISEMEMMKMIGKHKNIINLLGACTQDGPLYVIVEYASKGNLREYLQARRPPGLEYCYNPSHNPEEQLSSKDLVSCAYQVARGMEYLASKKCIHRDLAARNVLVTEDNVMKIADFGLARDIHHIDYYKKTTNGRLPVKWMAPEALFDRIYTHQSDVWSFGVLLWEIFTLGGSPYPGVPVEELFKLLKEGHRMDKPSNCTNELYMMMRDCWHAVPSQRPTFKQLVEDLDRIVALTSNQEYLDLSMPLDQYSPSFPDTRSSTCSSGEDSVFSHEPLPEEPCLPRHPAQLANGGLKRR
# [9] = molecular target: T5, cell-surface human FGFR1c (amino acids …); experiment: cell-based or functional assay; remark: listed apart in the source
# [10] = molecular target: T6, human KLB and human FGFR1c co-expressed …; experiment: cell-based or functional assay; remark: listed apart in the source
# [11] = molecular target: mouse KLB and mouse FGFR1c co-expressed on HEK293/mKLB/mFGFR1c/SRE-Luc cells (mouse); experiment: cell-based or functional assay
# [12] = molecular target: T6, human KLB and human FGFR1c co-expressed …; experiment: cell-based or functional assay; remark: listed apart in the source
Binder,"IC50, inhibition of 1 nM FGF21 activation of 293/hKLB/FGFR1c/SRE-Luc cells [1] [nM]",Kd [2] [nM],koff [2] [s⁻¹],kon [2] [M⁻¹ s⁻¹],t1/2 [2] [min],Kd [3] [nM],koff [3] [s⁻¹],kon [3] [M⁻¹ s⁻¹],t1/2 [3] [min],% Blocking at 100 nM Antibody Concentration [4] [%],Kd [5] [nM],koff [5] [s⁻¹],kon [5] [M⁻¹ s⁻¹],t1/2 [5] [min],Kd [6] [nM],koff [6] [s⁻¹],kon [6] [M⁻¹ s⁻¹],t1/2 [6] [min],binding result (mouse FGF21),binding result (rat FGF21),also measured
B1,1,37.2,0.0237,640000,0.5,2.3,0.00197,860000,5.9,64,64,0.053,820000,0.2,4.4,0.00549,1.25e+06,2.1,,,
B2,,,,,,,,,,,,,,,,,,,no binding,no binding,
B3,1.3,,,,,,,,,34,,,,,,,,,no binding,no binding,IC50 [4]: > 100 nM
B4,0.5,,,,,,,,,8,,,,,,,,,no binding,no binding,
B5,9.1,47.6,0.00316,66000,3.7,26.6,0.00297,111000,3.9,31,109,0.0142,130000,0.8,58.9,0.0139,236000,0.8,,,IC50 [4]: > 100 nM
B6,11,23.2,0.00578,250000,2,19.2,0.00669,349000,1.7,98,46.5,0.015,323000,0.8,41.1,0.0212,516000,0.5,,,IC50 [4]: 0.076 nM
B7,,,,,,,,,,,,,,,,,,,,,"% Activation [7]: 100%; EC50, SRE-luc activation [7]: 1.1 nM; EC50, SRE-luc activation by ligand [8]: 2.4 nM and 2.2 nM; % Activation [9]: 100%; EC50, SRE-luc activation [9]: 1.4 nM; EC50, SRE-luc activation by ligand [10]: 1.9 nM; EC50, SRE-luc activation [11]: 0.41 nM; EC50, SRE-luc activation by ligand [12]: 0.73 nM and 1.4 nM"
